Measurements: patent US20250049896A1 (Regeneron, published 2025)

Tests used:
[1] = target: T1, Hmm-hTFRC (REGN2431), monomeric human transferrin receptor ectodomain with N-terminal hexahistidine-myc-myc … (human, UniProt P02786 89-760); test: blocking ELISA, supernatant; Hmm-hTFRC binding to immobilized human holo-Tf
T1 construct: also called hmm.hTfR(C89-F763); His-myc-myc-hTFRC ecto
Method: In the blocking assay, the anti-human Transferrin goat IgG polyclonal antibody (anti-hTf pAb) was passively absorbed at a concentration of 2 micrograms/mL in PBS on a 96-well microtiter plate overnight at 4° C. […] To the same plate, human holo-Tf was then added at a concentration of 1 micrograms/mL in PBS+0.5% BSA for 2 hours at room temperature. […] After a 1-hour incubation, the mixtures were transferred to the human holo-Tf microtiter plates. […] The plates were developed using TMB substrate solution according to the manufacturer's recommended procedure and absorbance at 450 nm was measured on a Victor™ Multilabel Plate Reader.
The ability of the anti-TfR antibody to block human TFRC binding to human holo-Tf was evaluated using an ELISA-based blocking assay.

[2] = target: T2, hmm.hTfRC (REGN2431), human transferrin receptor extracellular domain with hexahistidine-myc-myc tag (human, UniProt P02786 89-760); test: SPR (Biacore), mAb captured on anti-human Fc, 100 nM hTFR-mmh, 25 C
T2 construct: Monomeric recombinant protein, 79210 g/mol; also called hTFR-mmh; His-myc-myc-hTFRC ecto
Method: (§1) Biacore binding kinetics assays were conducted for the interaction of 32 anti-human TfR IgG1 monoclonal antibodies from CHO supernatants with TfR reagents at 25° C.
(§2) Equilibrium dissociation constants (KD) for the interaction of anti-TfR monoclonal antibodies with human and fascicularis monkey TfR ecto domain recombinant proteins were determined using a real-time surface plasmon resonance (SPR) based Biacore S200 biosensor. All binding studies were performed in 10 mM HEPES, 150 mM NaCl, 3 mM EDTA, and 0.05% v/v surfactant Tween-20, pH 7.4 (HBS-EP) running buffer at […]. The Biacore CM5 sensor surface was first derivatized by amine coupling with a monoclonal mouse anti-human Fc antibody (REGN2567) followed by a step to capture anti-TfR monoclonal antibodies in CHO conditioned media. […] The dissociation of TfR bound to anti-TfR monoclonal antibodies was monitored for 3 minutes in HBS-EP running buffer. At the end of each cycle, the anti-TfR monoclonal antibodies capture surface was regenerated using a 12-sec injection of 20 mM H₃PO₄. The association rate (ka) and dissociation rate (kd) were determined by fitting the real-time binding sensorgrams to a 1:1 binding model with mass transport limitation using Scrubber 2.0 c software. The dissociation equilibrium constant (KD) and dissociative half-life (t½) were calculated from the kinetic rate constants as: […]

[3] = target: T3, mf TFRC ecto-mmh (REGN2054), monomeric monkey (cyno) Tfrc ectodomain with C-terminal myc-myc-hexahistidine tag (monkey (cyno), Macaca fascicularis, UniProt H9EXL1 89-760); test: SPR (Biacore), mAb captured on anti-human Fc, 100 nM mfTfR-mmh, 25 C
T3 construct: range 89-760; also called mfTfR-mmh; mfTFR-mmh
Method: as §1, §2

T1 sequence (P02786 other isoform, or with tags, fused parts or gaps): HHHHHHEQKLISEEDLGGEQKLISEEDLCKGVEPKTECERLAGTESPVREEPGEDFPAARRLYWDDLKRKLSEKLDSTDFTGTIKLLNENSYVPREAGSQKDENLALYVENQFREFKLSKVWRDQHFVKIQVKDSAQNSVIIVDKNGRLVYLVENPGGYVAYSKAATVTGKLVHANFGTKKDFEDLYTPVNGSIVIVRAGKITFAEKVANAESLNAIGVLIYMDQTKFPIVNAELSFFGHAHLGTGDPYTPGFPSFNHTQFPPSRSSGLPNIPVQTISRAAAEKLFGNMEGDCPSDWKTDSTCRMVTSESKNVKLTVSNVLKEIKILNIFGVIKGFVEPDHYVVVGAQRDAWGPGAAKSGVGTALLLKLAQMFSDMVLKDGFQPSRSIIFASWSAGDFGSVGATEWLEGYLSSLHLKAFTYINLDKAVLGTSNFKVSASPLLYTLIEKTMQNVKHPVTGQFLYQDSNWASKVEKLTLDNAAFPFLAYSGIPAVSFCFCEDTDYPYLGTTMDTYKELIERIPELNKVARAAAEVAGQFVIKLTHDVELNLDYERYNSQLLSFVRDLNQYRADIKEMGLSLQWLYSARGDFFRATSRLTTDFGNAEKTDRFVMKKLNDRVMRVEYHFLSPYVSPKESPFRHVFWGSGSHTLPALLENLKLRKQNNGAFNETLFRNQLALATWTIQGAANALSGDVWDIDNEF
T2 sequence (P02786 other isoform, or with tags, fused parts or gaps): as above
T3 sequence (chain, as listed by the source): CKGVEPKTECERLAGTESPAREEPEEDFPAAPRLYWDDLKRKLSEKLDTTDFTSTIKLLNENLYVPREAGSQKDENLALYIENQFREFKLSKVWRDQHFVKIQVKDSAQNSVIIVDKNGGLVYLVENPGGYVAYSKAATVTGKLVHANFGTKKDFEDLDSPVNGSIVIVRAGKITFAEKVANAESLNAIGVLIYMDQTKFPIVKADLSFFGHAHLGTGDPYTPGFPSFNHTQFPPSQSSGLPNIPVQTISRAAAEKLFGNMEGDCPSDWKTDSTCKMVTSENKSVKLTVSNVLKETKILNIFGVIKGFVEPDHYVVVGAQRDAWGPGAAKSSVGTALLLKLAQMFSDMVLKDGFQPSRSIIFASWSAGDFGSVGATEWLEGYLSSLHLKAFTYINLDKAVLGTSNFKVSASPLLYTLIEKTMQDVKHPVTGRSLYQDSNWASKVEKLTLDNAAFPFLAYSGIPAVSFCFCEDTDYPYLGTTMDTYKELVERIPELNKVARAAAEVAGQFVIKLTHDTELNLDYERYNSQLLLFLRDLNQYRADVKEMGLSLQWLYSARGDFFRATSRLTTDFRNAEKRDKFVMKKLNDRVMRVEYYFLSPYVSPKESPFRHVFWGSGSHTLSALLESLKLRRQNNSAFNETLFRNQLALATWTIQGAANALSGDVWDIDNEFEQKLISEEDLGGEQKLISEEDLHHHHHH

Binder | % Blocking [1] [%] | 100 nM Ag Bound (RU) [2] [RU] | Kd [2] [nM] | koff [2] [s⁻¹] | kon [2] [M⁻¹ s⁻¹] | t½ [2] [min] | 100 nM Ag Bound (RU) [3] [RU] | Kd [3] [nM] | koff [3] [s⁻¹] | kon [3] [M⁻¹ s⁻¹] | t½ [3] [min]
12799B Fab (Fab, V domains shown, CHO supernatant) VH: QITLKESGPTLVKPTQTLTLTCTFSGFSLSTSGVGVVWIRQPPGKALEWLALIYWNDHKRYSPSLGSRLTITKDTSKNQVVLTMTNMDPVDTATYYCAHYSGSYSYYYYGLDVWGQGTTVTVSS VL: DIQMTQSPSSVSASVGDRVTITCRASQGIASWLAWYQQKPGKAPELLIYAASSLQGGVPSRFSGSGSGTDFTLTISSLQPEDFAIYYCQQANYFPWTFGQGTKVEIKR | 5 |  |  |  |  |  |  |  |  |  | 
12798B Fab (Fab, V domains shown, CHO supernatant) VH: EVQLVESGGDLVQPGRSLRLSCAASGFTFDDYAMHWVRQAPGKGLEWVSGISWNSATRVYADSVKGRFTISRDNAKNFLYLQMNSLRSEDTALYHCAKDMDISLGYYGLDVWGQGTTVTVSS VL: not shown | 10 |  |  |  |  |  |  |  |  |  | 
12799B scFv (VK-VH) (scFv, CHO supernatant; Vk-3xG4S-Vh) scFv: DIQMTQSPSSVSASVGDRVTITCRASQGIASWLAWYQQKPGKAPELLIYAASSLQGGVPSRFSGSGSGTDFTLTISSLQPEDFAIYYCQQANYFPWTFGQGTKVEIKGGGGSGGGGSGGGGSQITLKESGPTLVKPTQTLTLTCTFSGFSLSTSGVGVVWIRQPPGKALEWLALIYWNDHKRYSPSLGSRLTITKDTSKNQVVLTMTNMDPVDTATYYCAHYSGSYSYYYYGLDVWGQGTTVTVSS | 10 |  |  |  |  |  |  |  |  |  | 
12798B scFv (VH-VK) (scFv, CHO supernatant) scFv: EVQLVESGGDLVQPGRSLRLSCAASGFTFDDYAMHWVRQAPGKGLEWVSGISWNSATRVYADSVKGRFTISRDNAKNFLYLQMNSLRSEDTALYHCAKDMDISLGYYGLDVWGQGTTVTVSSGGGGSGGGGSGGGGSEIVMTQSPATLSVSPGERATLSCRASQTVSSNLAWYQQKPGQAPRLLIYGSSSRATGIPARFSGSGSGTEFTLTISSLQSEDFAVYYCQQYNNWPPYTFGQGTKLEIK | 0 |  |  |  |  |  |  |  |  |  | 
12795B scFv (VK-VH) (scFv, CHO supernatant; Vk-3xG4S-Vh) scFv: DIQMTQSPSSLSASVGDRVTITCRASQGIRDHFGWYQQKPGKAPKRLIYAASSLHSGVPSRFSGSGSGTEFTLTISSLQPEDFATYYCLQYDTYPLTFGGGTKVEIKGGGGSGGGGSGGGGSEVQLVESGGGLVQPGGSLRLSCATSGFTFTSYDMKWVRQAPGLGLEWVSAISGSGGNTYYADSVKGRFTISRDNSRNTLYLQMNSLRAEDTAVYYCTRSHDFGAFDYFDYWGQGTLVTVSS | 23 |  |  |  |  |  |  |  |  |  | 
12795B Fab (Fab, V domains shown, CHO supernatant) VH: EVQLVESGGGLVQPGGSLRLSCATSGFTFTSYDMKWVRQAPGLGLEWVSAISGSGGNTYYADSVKGRFTISRDNSRNTLYLQMNSLRAEDTAVYYCTRSHDFGAFDYFDYWGQGTLVTVSS VL: DIQMTQSPSSLSASVGDRVTITCRASQGIRDHFGWYQQKPGKAPKRLIYAASSLHSGVPSRFSGSGSGTEFTLTISSLQPEDFATYYCLQYDTYPLTFGGGTKVEIKR | 44 |  |  |  |  |  |  |  |  |  | 
12801B Fab (Fab, V domains shown, CHO supernatant) VH: EVQLLESGGALVQPGGSLRLSCAASGFTFTSYAMHWVRQAPGKGLEWVSSIRGSGGGTYSADSVKGRFTISRDNSRDTLYLQMNSVRAEDTAVYYCARSHDYGAFDFFDYWGQGTLVTVSS VL: DIQMTQSPSSLSASVGDRVTITCRASQGIRTDLGWYQQKPGKAPKRLIYAASSLQSGVPSRFSGSGSGTEFTLTISSLRPEDFATFYCLQYNSYPLTFGGGTKVEIKR | 45 |  |  |  |  |  |  |  |  |  | 
12801B scFv (VH-VK) (scFv) EVQLLESGGALVQPGGSLRLSCAASGFTFTSYAMHWVRQAPGKGLEWVSSIRGSGGGTYSADSVKGRFTISRDNSRDTLYLQMNSVRAEDTAVYYCARSHDYGAFDFFDYWGQGTLVTVSSDIQMTQSPSSLSASVGDRVTITCRASQGIRTDLGWYQQKPGKAPKRLIYAASSLQSGVPSRFSGSGSGTEFTLTISSLRPEDFATFYCLQYNSYPLTFGGGTKVEIK | 37 |  |  |  |  |  |  |  |  |  | 
12795B scFv (VH-VK) (scFv) EVQLVESGGGLVQPGGSLRLSCATSGFTFTSYDMKWVRQAPGLGLEWVSAISGSGGNTYYADSVKGRFTISRDNSRNTLYLQMNSLRAEDTAVYYCTRSHDFGAFDYFDYWGQGTLVTVSSDIQMTQSPSSLSASVGDRVTITCRASQGIRDHFGWYQQKPGKAPKRLIYAASSLHSGVPSRFSGSGSGTEFTLTISSLQPEDFATYYCLQYDTYPLTFGGGTKVEIK | 45 |  |  |  |  |  |  |  |  |  | 
12798B scFv (VK-VH) (scFv, CHO supernatant; Vk-3xG4S-Vh) scFv: EIVMTQSPATLSVSPGERATLSCRASQTVSSNLAWYQQKPGQAPRLLIYGSSSRATGIPARFSGSGSGTEFTLTISSLQSEDFAVYYCQQYNNWPPYTFGQGTKLEIKGGGGSGGGGSGGGGSEVQLVESGGDLVQPGRSLRLSCAASGFTFDDYAMHWVRQAPGKGLEWVSGISWNSATRVYADSVKGRFTISRDNAKNFLYLQMNSLRSEDTALYHCAKDMDISLGYYGLDVWGQGTTVTVSS | 10 |  |  |  |  |  |  |  |  |  | 

Further lines, results first:

% Blocking [1] [%] | 100 nM Ag Bound (RU) [2] [RU] | Kd [2] [nM] | koff [2] [s⁻¹] | kon [2] [M⁻¹ s⁻¹] | t½ [2] [min] | 100 nM Ag Bound (RU) [3] [RU] | Kd [3] [nM] | koff [3] [s⁻¹] | kon [3] [M⁻¹ s⁻¹] | t½ [3] [min] | Binder
 | 946 | 0.935 | 0.000122 | 131000 | 95 | 437 | 9.68 | 0.000735 | 75900 | 15.7 | 12844B (antibody, human IgG1, kappa, V domains shown, Tested as bivalent human IgG1 from CHO primary supernatant) VH: EVQLVESGGSVVRPGGSLRLSCEASGFTFDDYGMSWVRQDPGKGLEWVSGINWNGDRTNYADSVKGRFIISRDNAKNSVYLQMNSLRAEDSALYHCARDQGLGVAATLDYWGQGTLVTVSS VL: not shown
 | 823 | 0.494 | 4.99e-05 | 101000 | 232 | 261 | 18.2 | 0.000962 | 52900 | 12 | 12848B (antibody, human IgG1, kappa, V domains shown, Tested as bivalent human IgG1 from CHO primary supernatant; also called H1H12848B; REGN17515) VH: EVQLVESGGGLVQPGRSLTLSCAASGFTFDNFGMHWVRQGPGKGLEWVSGLTWNSGVIGYADSVKGRFTISRDNAKNSLYLQMNSLRPEDTALYYCAKDIRNYGPFDYWGQGTLVTVSS VL: not shown
 | 1150 | 3.11 | 0.000417 | 134000 | 27.7 | 254 | 17.7 | 0.00168 | 95100 | 6.9 | 12835B (antibody, human IgG1, kappa, V domains shown, Tested as bivalent human IgG1 from CHO primary supernatant; also called H1H12835B; REGN17509) VH: EVQLVESGGGLIQPGGSLRLSCEASGFTFRNYEMNWVRQAPGKGLEWVSYISSSGNMKDYAESVKGRFTISRDNVKNSLQLQMNSLRVEDTAVYYCARDEFPYGMDVWGQGTTVTVSS VL: not shown
 | 725 | 0.215 | 1.76e-05 | 83700 | 657 | 87 | 15.5 | 0.00157 | 101000 | 7.3 | 12850B (antibody, human IgG1, kappa, V domains shown, Tested as bivalent human IgG1 from CHO primary supernatant; also called H1H12850B; REGN17516) VH: QVQLVQSGAEVKKPGSSVKVSCKASGGTFNTYAITWVRQAPGQGLEWMGGIIPISGIAEYAQKFQGRVTITTDDSSTTAYMELNSLRSEDTAVYYCASWNYALYYFYGMDVWGRGTTVTVSS VL: not shown
 | 895 | 1.62 | 0.000171 | 105000 | 67.6 | 702 | 3.36 | 0.000333 | 99200 | 34.7 | 12847B (antibody, human IgG1, kappa, V domains shown, Tested as bivalent human IgG1 from CHO primary supernatant; also called H1H12847B; REGN17514) VH: EVQLVESGGGLVQPGRSLRLSCAASGFTFDDYAMNWVRQAPGKGLEWVSGISWSSGSMDYADSVKGRFTISRDNAKNSLYLQMNSLRTEDTALYYCAKAREVGDYYGMDVWGQGTTVTVSS VL: not shown
 | 854 | 1.78 | 0.000168 | 94200 | 68.8 | 399 | 15 | 0.00118 | 79000 | 9.8 | 12843B (antibody, human IgG1, kappa, V domains shown, Tested as bivalent human IgG1 from CHO primary supernatant; also called H1H12843B; REGN17512) VH: EVQLVESGGGLVQPGGSLRLSCAASGFTFNIFEMNWVRQAPGKGLEWISYISSRGTTTYYADSVRGRFTISRDNAKNSLYLQMNSLRAEDTAVYYCARDYEATIPFDFWGQGTLVTVSS VL: not shown
27 |  |  |  |  |  |  |  |  |  |  | 12801B scFv (VK-VH) (scFv, CHO supernatant; Vk-3xG4S-Vh) scFv: DIQMTQSPSSLSASVGDRVTITCRASQGIRTDLGWYQQKPGKAPKRLIYAASSLQSGVPSRFSGSGSGTEFTLTISSLRPEDFATFYCLQYNSYPLTFGGGTKVEIKGGGGSGGGGSGGGGSEVQLLESGGALVQPGGSLRLSCAASGFTFTSYAMHWVRQAPGKGLEWVSSIRGSGGGTYSADSVKGRFTISRDNSRDTLYLQMNSVRAEDTAVYYCARSHDYGAFDFFDYWGQGTLVTVSS
